The RNAGym collection of RNA variant scans (doi:10.7554/elife.90254)

B1: LINE1-full (parent)
chain: UACGUAGGUGGUUUUCCCCUGAUAGUGCUAAGGGGGCCUGGAAGUUUGGACUGGGCAGAGCUCAACACAGCGUGGCAAAGUGGCUGUGGCUAGACUGCCUCUCUGGAUUCCUCGUCACUCAGCAGGGCAUCUCUGAGAGAAAUGCC

Variants of: B1
Test: self-cleavage, relative activity (ratio to wild type); higher = more cleavage; in vitro, sequencing; the parent is a self-cleaving ribozyme

Compared with U102C A117C, U102C A121G is lower in self-cleavage: 2.63 for the first, 1.06 for the second.

First: U102C A124C
Second: U102C A124U
The self-cleavage of the first is higher: 2.04 for the first, 1.14 for the second.

Going from U102C A129G to U102C A136C, the self-cleavage falls from 1.51 to 0.97.

First: U102C A136U
Second: U102C A138U
The self-cleavage of the first is higher: 1.8 for the first, 1.49 for the second.

Compared with U102C A141G, U102C A142C is higher in self-cleavage: 1.39 for the first, 1.73 for the second.

Compared with U102C A142G, U102C A142U is lower in self-cleavage: 1.53 for the first, 1.26 for the second.

Compared with U102C C123U, U102C C131U is lower in self-cleavage: 1.21 for the first, 0.87 for the second.

Compared with U102C C133U, U102C C145U is higher in self-cleavage: 0.47 for the first, 1.93 for the second.

Compared with U102C G105A, U102C G122A is lower in self-cleavage: 2.14 for the first, 1.66 for the second.

Going from U102C G126A to U102C G126U, the self-cleavage falls from 1.65 to 1.59.

Compared with U102C G127A, U102C U104A is lower in self-cleavage: 1.7 for the first, 1.52 for the second.

Compared with U102C U108A, U102C U108C is lower in self-cleavage: 1.57 for the first, 1.15 for the second.

Going from U102C U109C to U102C U115A, the self-cleavage rises from 1.38 to 1.51.

First: U102C U115C
Second: U102C U130A
The self-cleavage of the first is lower: 2.02 for the first, 2.21 for the second.

First: U102C U132C
Second: U102C U134A
The self-cleavage of the first is higher: 1.75 for the first, 1.59 for the second.

Going from U102C U134C to U102C U143A, the self-cleavage falls from 1.55 to 1.36.

Going from U102G to U102G A140G, the self-cleavage falls from 0.71 to 0.39.

First: U102G G144U
Second: U102G U143A
The self-cleavage of the first is higher: 0.97 for the first, 0.84 for the second.

Compared with C103A, C103A A117G is higher in self-cleavage: 1.38 for the first, 1.49 for the second.

First: C103A A142G
Second: C103A U143C
The self-cleavage of the first is higher: 1.41 for the first, 1.1 for the second.

Compared with C103G, C103U is lower in self-cleavage: 1.25 for the first, 1.23 for the second.

Going from C103U A121G to C103U A140U, the self-cleavage rises from 1.58 to 1.72.

First: C103U A142C
Second: C103U G114C
The self-cleavage of the first is lower: 1.23 for the first, 1.5 for the second.

Going from C103U U115A to C103U U115C, the self-cleavage falls from 1.72 to 1.51.

Going from C103U U130C to C103U U134C, the self-cleavage rises from 0.84 to 1.48.

Going from U104A A107U to U104A A117G, the self-cleavage rises from 1.31 to 1.67.

Compared with U104A A121U, U104A A129C is higher in self-cleavage: 1.11 for the first, 1.61 for the second.

Going from U104A A136G to U104A A138G, the self-cleavage falls from 1.39 to 1.34.

First: U104A A140U
Second: U104A A141C
The self-cleavage of the first is higher: 1.03 for the first, 0.47 for the second.

First: U104A A141G
Second: U104A C113A
The self-cleavage of the first is higher: 1.43 for the first, 0.91 for the second.

First: U104A C113U
Second: U104A C116U
The self-cleavage of the first is lower: 0.51 for the first, 0.9 for the second.

Compared with U104A C118U, U104A C120U is higher in self-cleavage: 0.84 for the first, 1.65 for the second.

First: U104A C123U
Second: U104A C131U
The self-cleavage of the first is lower: 1.51 for the first, 1.55 for the second.

Compared with U104A G106A, U104A U108A is higher in self-cleavage: 0.84 for the first, 1 for the second.

Going from U104A U109A to U104A U109C, the self-cleavage rises from 0.42 to 1.11.

Going from U104A U115A to U104A U115C, the self-cleavage rises from 1.13 to 1.42.

Compared with U104A U119A, U104A U130A is lower in self-cleavage: 1.23 for the first, 0.89 for the second.

First: U104A U132A
Second: U104A U132C
The self-cleavage of the first is higher: 1.64 for the first, 1.08 for the second.

Compared with U104A U143C, U104C A117G is higher in self-cleavage: 1.13 for the first, 1.23 for the second.

Compared with U104C A124U, U104C A129C is higher in self-cleavage: 1.76 for the first, 2.1 for the second.

Compared with U104C A136U, U104C A140G is lower in self-cleavage: 1.91 for the first, 1.67 for the second.

Going from U104C A140U to U104C A141C, the self-cleavage rises from 1.25 to 1.73.

Going from U104C A141G to U104C A142G, the self-cleavage rises from 1.69 to 1.81.

Compared with U104C C113A, U104C C113U is lower in self-cleavage: 2.01 for the first, 1.8 for the second.

Going from U104C C116U to U104C C120U, the self-cleavage falls from 1.91 to 1.45.

First: U104C C133U
Second: U104C C146U
The self-cleavage of the first is lower: 1.72 for the first, 2.3 for the second.

Compared with U104C G105U, U104C G114A is lower in self-cleavage: 1.66 for the first, 1.59 for the second.

Compared with U104C G122A, U104C G125A is lower in self-cleavage: 1.54 for the first, 1.28 for the second.

Going from U104C G126U to U104C G144U, the self-cleavage rises from 1.59 to 2.06.

Going from U104C U108C to U104C U109A, the self-cleavage falls from 2.07 to 0.65.

Compared with U104C U112A, U104C U112G is lower in self-cleavage: 1.8 for the first, 1.41 for the second.

Going from U104C U115C to U104C U119A, the self-cleavage rises from 1.92 to 2.16.

First: U104C U119C
Second: U104C U119G
The self-cleavage of the first is higher: 1.96 for the first, 0 for the second.

First: U104C U130G
Second: U104C U132C
The self-cleavage of the first is lower: 1.5 for the first, 1.63 for the second.

Going from U104C U134C to U104G A140G, the self-cleavage falls from 1.62 to 0.73.

First: U104G C113U
Second: U104G U115A
The self-cleavage of the first is lower: 0.83 for the first, 0.87 for the second.

Compared with U104G U130C, G105A is higher in self-cleavage: 0.75 for the first, 1.43 for the second.

First: G105A A121U
Second: G105A A129C
The self-cleavage of the first is lower: 1.46 for the first, 2.69 for the second.

Going from G105A A136G to G105A G114A, the self-cleavage falls from 1.28 to 0.75.

Compared with G105A G114C, G105A U108C is higher in self-cleavage: 1.42 for the first, 1.56 for the second.

First: G105A U109C
Second: G105A U130C
The self-cleavage of the first is higher: 1.46 for the first, 0.96 for the second.

First: G105C
Second: G105C A140G
The self-cleavage of the first is lower: 1.59 for the first, 1.83 for the second.

First: G105C U132C
Second: G105U
The self-cleavage of the first is higher: 1.53 for the first, 1.37 for the second.

First: G105U A107C
Second: G105U A117G
The self-cleavage of the first is higher: 2.34 for the first, 1.74 for the second.

First: G105U A136G
Second: G105U U115A
The self-cleavage of the first is lower: 1.47 for the first, 1.72 for the second.

Going from G105U U119C to G105U U132C, the self-cleavage falls from 1.92 to 0.

Compared with G105U U143A, G106A is higher in self-cleavage: 1.34 for the first, 1.48 for the second.

Going from G106A A121G to G106A A124U, the self-cleavage falls from 1.78 to 1.54.

First: G106A A141G
Second: G106A C128U
The self-cleavage of the first is lower: 1.16 for the first, 1.7 for the second.

Going from G106A G127U to G106A U132A, the self-cleavage falls from 1.49 to 0.61.

Compared with G106A U132G, G106A U134C is lower in self-cleavage: 1.67 for the first, 1.08 for the second.

Compared with G106A U143C, G106C is lower in self-cleavage: 1.51 for the first, 1.37 for the second.

First: G106U
Second: G106U A117G
The self-cleavage of the first is lower: 1.05 for the first, 1.22 for the second.

Going from G106U A136U to G106U A138G, the self-cleavage rises from 0.83 to 0.99.

First: G106U A141G
Second: G106U U108C
The self-cleavage of the first is lower: 0.83 for the first, 1.32 for the second.

First: G106U U112C
Second: G106U U130C
The self-cleavage of the first is lower: 0.82 for the first, 1.29 for the second.

First: G106U U134C
Second: A107C A117U
The self-cleavage of the first is lower: 0.75 for the first, 2.03 for the second.

First: A107C A129U
Second: A107C A136G
The self-cleavage of the first is higher: 2.42 for the first, 1.73 for the second.

Going from A107C A136U to A107C U115C, the self-cleavage rises from 1.2 to 1.38.

First: A107C U119C
Second: A107C U130C
The self-cleavage of the first is higher: 2.19 for the first, 0 for the second.

Compared with A107C U143A, A107G A121U is lower in self-cleavage: 1.79 for the first, 1.28 for the second.

First: A107G A124G
Second: A107G A129G
The self-cleavage of the first is lower: 0.96 for the first, 1.63 for the second.

Compared with A107G A136U, A107G A138G is lower in self-cleavage: 1.82 for the first, 1.42 for the second.

Work on A107G A140G yielded a self-cleavage of 1.87.
